This passage reports Km, kcat and kcat/Km results from publication PMC3329556, “Insights into the Mechanism of Bovine CD38/NAD+Glycohydrolase from the X-Ray Structures of Its Michaelis Complex and Covalently-Trapped Intermediates” (PLoS ONE, 2012).

B1: bCD38 (bovine CD38/NAD+glycohydrolase) (Bos taurus) (protein)
chain: YKWHYSGLNRWHGAGSTADFQKIIQERCDTYTQTIRPGSRSRNCQAIRQAFMSAFISKDPCKATKEDYNSLINLAPPTVPCGQQVFWSKTKELAHEYAKRRRLMTLEDTLLGYLADGLRWCGEPGSSDLNIWSCPDWRKDCRTNYLSVFWEVLSERFAESACNTVRVVLNGSLENAFDSMSIFGRVEAPNLRPQVELEAWLVHDTGKPPSDSCSGSSIRKLKSILDGRNVKFRCMDNLSRDQFLQRS
notes: soluble ecto-domain residues 32-278 (first 31 residues removed), alpha-factor secretion signal, Pichia pastoris GS115 or X33, mono-N-glycosylated at Asn201, back-to-back homodimer in crystal
B2: bCD38 (bovine CD38/NAD+glycohydrolase) (Bos taurus; K120A) (protein)
chain: B1 chain with K89A
notes: as for B1
B3: bCD38 (bovine CD38/NAD+glycohydrolase) (Bos taurus; E218Q) (protein)
chain: B1 chain with E187Q
notes: as for B1
B4: bCD38 (bovine CD38/NAD+glycohydrolase) (Bos taurus; W168A) (protein)
chain: B1 chain with W137A
notes: as for B1
B5: bCD38 (bovine CD38/NAD+glycohydrolase) (Bos taurus; S185A) (protein)
chain: B1 chain with S154A
notes: as for B1
B6: bCD38 (bovine CD38/NAD+glycohydrolase) (Bos taurus; R216A) (protein)
chain: B1 chain with R185A
notes: as for B1

For orientation: Km means the substrate concentration at which the rate is half of its maximum. In general, kcat refers to the maximal rate divided by the concentration of active sites. The kcat/Km is the second-order rate constant that governs catalysis at low substrate concentration.

Numbering of substitutions follows the chain as printed. Names may count otherwise.

Substrate in this data set: NC(=O)c1ccc[n+]([C@@H]2O[C@H](COP(=O)(O)OP(=O)(O)OC[C@H]3O[C@@H](n4cnc5c(N)ncnc54)[C@H](O)[C@@H]3O)[C@@H](O)[C@H]2O)c1
Description: radiometric HPLC assay, initial rates, Michaelis-Menten fit. The format is biochemical, Bos taurus. As to conditions: 10 mM potassium phosphate pH 7.4, 37°C, 14C-labelled NAD+ tracer. An excerpt:
radiometric HPLC assay, initial rates, Michaelis-Menten fit on bCD38 (bovine CD38/NAD+glycohydrolase)
For B1, the Km came out at 17.1 ± 0.3 µM, the kcat turned out to be 57.9 ± 1.9 s⁻¹ and the specificity constant (kcat/Km) worked out at 3.38e+06 ± 130000 M⁻¹ s⁻¹.
The matching figures for B2: 27.7 ± 3.4 µM, 47.1 ± 2.1 s⁻¹ and 1.7e+06 ± 220000 M⁻¹ s⁻¹.
The matching figures for B3: 24.7 ± 5.7 µM, 0.03 ± 0.002 s⁻¹ and 1210 ± 300 M⁻¹ s⁻¹.
In the case of B4, the Km is 24.6 ± 4.2 µM, the kcat was found to be 19.6 ± 0.9 s⁻¹ and the kcat/Km amounted to 800000 ± 140000 M⁻¹ s⁻¹.
The matching figures for B5: 18.7 ± 2.8 µM, 38.2 ± 1.3 s⁻¹ and 2.04e+06 ± 310000 M⁻¹ s⁻¹.
The matching figures for B6: 22.9 ± 3.4 µM, 25.4 ± 1.1 s⁻¹ and 1.1e+06 ± 170000 M⁻¹ s⁻¹.
